Measured values taken from patent publication US20070275900.

Assays:
H-Val-Ala-NAP-TSAO = biological target: T1, H-Val-Ala-NAP-TSAO
T1 chain: VA

[1] = biological target: T2, NH2-Val-HyPro(Bzl)-NAP-TSAO
T2 chain: VP

H-Val-Pro-NAP-TSAO = biological target: T3, H-Val-Pro-NAP-TSAO
T3 chain: VP

[2] = biological target: T4, Z-Val-Pro-Val-Pro-NAP-TSAO
T4 chain: VPVP

H-Tyr-Pro-NAP-TSAO = biological target: T5, H-Tyr-Pro-NAP-TSAO
T5 chain: YP

H-Val-D-Pro-NAP-TSAO = biological target: T6, H-Val-D-Pro-NAP-TSAO
T6 chain: VP

H-Val-Gly-NAP-TSAO = biological target: T7, H-Val-Gly-NAP-TSAO
T7 chain: VG

H-Val-4HyPro-NAP-TSAO = biological target: T8, H-Val-4HyPro-NAP-TSAO
T8 chain: VP

H-Val-Phe-NAP-TSAO = biological target: T9, H-Val-Phe-NAP-TSAO
T9 chain: VF

Val-Pro-PI 1 = biological target: T10, Val-Pro-PI 1
T10 chain: VP

[3] = biological target: T11, H-Val-Ala-Val-Pro-NAP-TSAO
T11 chain: VAVP

H-Gly-3.4Hypro-NAP-TSAO = biological target: T12, H-Gly-3.4Hypro-NAP-TSAO
T12 chain: GP

H-Gly-Pro-NAP-TSAO = biological target: T13, H-Gly-Pro-NAP-TSAO
T13 chain: GP

[4] = biological target: T14, H-Val-Pro-6-Aminoquinoline
T14 chain: VP

H-Val-Pro-Val-NHP-TSAO = biological target: T15, H-Val-Pro-Val-NHP-TSAO
T15 chain: VPV

H-Lys-Pro-NAP-TSAO = biological target: T16, H-Lys-Pro-NAP-TSAO
T16 chain: KP

H-Val-Leu-NAP-TSAO = biological target: T17, H-Val-Leu-NAP-TSAO
T17 chain: VL

Fmoc-Val-Pro-Doxorubicin = biological target: T18, Fmoc-Val-Pro-Doxorubicin
T18 chain: VP

H-Val-Pro-Doxorubicin = biological target: T19, H-Val-Pro-Doxorubicin
T19 chain: VP

[5] = biological target: T20, Me-NH-Val-Pro-Val-NHP-TSAO
T20 chain: VPV

[6] = biological target: T21, H-Val-Pro-Val-Pro-NAP-TSAO
T21 chain: VPVP

H-Val-Pro-Val-NAP-TSAO = biological target: T22, H-Val-Pro-Val-NAP-TSAO
T22 chain: VPV

H-Asp-Pro-NAP-TSAO = biological target: T23, H-Asp-Pro-NAP-TSAO
T23 chain: DP

[7] = biological target: T24, H-Lys-Pro-Asp-Pro-NAP-TSAO
T24 chain: KPDP

B1: purified CD26 (dipeptidyl-peptidase IV, EC 3.4.14.5) (protein)
chain: MKTPWKVLLGLLGAAALVTIITVPVVLLNKGTDDATADSRKTYTLTDYLKNTYRLKLYSLRWISDHEYLYKQENNILVFNAEYGNSSVFLENSTFDEFGHSINDYSISPDGQFILLEYNYVKQWRHSYTASYDIYDLNKRQLITEERIPNNTQWVTWSPVGHKLAYVWNNDIYVKIEPNLPSYRITWTGKEDIIYNGITDWVYEEEVFSAYSALWWSPNGTFLAYAQFNDTEVPLIEYSFYSDESLQYPKTVRVPYPKAGAVNPTVKFFVVNTDSLSSVTNATSIQITAPASMLIGDHYLCDVTWATQERISLQWLRRIQNYSVMDICDYDESSGRWNCLVARQHIEMSTTGWVGRFRPSEPHFTLDGNSFYKIISNEEGYRHICYFQIDKKDCTFITKGTWEVIGIEALTSDYLYYISNEYKGMPGGRNLYKIQLSDYTKVTCLSCELNPERCQYYSVSFSKEAKYYQLRCSGPGLPLYTLHSSVNDKGLRVLEDNSALDKMLQNVQMPSKKLDFIILNETKFWYQMILPPHFDKSKKYPLLLDVYAGPCSQKADTVFRLNWATYLASTENIIVASFDGRGSGYQGDKIMHAINRRLGTFEVEDQIEAARQFSKMGFVDNKRIAIWGWSYGGYVTSMVLGSGSGVFKCGIAVAPVSRWEYYDSVYTERYMGLPTPEDNLDHYRNSTVMSRAENFKQVEYLLIHGTADDNVHFQQSAQISKALVDVGVDFQAMWYTDEDHGIASSTAHQHIYTHMSHFIKQCFSLP
Conversion %, 1 h (H-Val-Ala-NAP-TSAO): 0%
Conversion %, 4 h (H-Val-Ala-NAP-TSAO): 6.5%
Conversion %, 24 h (H-Val-Ala-NAP-TSAO): 35%
Conversion %, 4 h [1]: 0%
Conversion %, 24 h [1]: 0%
Conversion %, 1 h (H-Val-Pro-NAP-TSAO): 37%
Conversion %, 4 h (H-Val-Pro-NAP-TSAO): 62%
Conversion %, 24 h (H-Val-Pro-NAP-TSAO): 61%
conversion of 50 µM CAM-405 to CAM-212 by 5.7 mUnits purified CD26, 30 min (HPLC) (H-Val-Pro-NAP-TSAO): fifty percent of the TSAO dipeptide derivative was converted to CAM-212 within 30 min
conversion of 50 µM CAM-405 to CAM-212 by 5.7 mUnits purified CD26, first 10 min (HPLC) (H-Val-Pro-NAP-TSAO): Within the first 10 min of the reaction, at least 20% of CAM-405 had been converted to CAM-212
hydrolysis of 50 µM CAM-405 by 5.7 mUnits purified CD26, 60 min (HPLC) (H-Val-Pro-NAP-TSAO): ˜67% of CAM-405 was hydrolysed after 60 min
% conversion, 1 h [2]: 0%
% conversion, 4 h [2]: 0%
% conversion, 24 h [2]: 0%
Conversion %, 1 h (H-Tyr-Pro-NAP-TSAO): 43%
Conversion %, 4 h (H-Tyr-Pro-NAP-TSAO): 56%
Conversion %, 24 h (H-Tyr-Pro-NAP-TSAO): 79%
Conversion %, 1 h (H-Val-D-Pro-NAP-TSAO): 0%
Conversion %, 4 h (H-Val-D-Pro-NAP-TSAO): 1%
Conversion %, 24 h (H-Val-D-Pro-NAP-TSAO): 2%
Conversion %, 1 h (H-Val-Gly-NAP-TSAO): 0%
Conversion %, 4 h (H-Val-Gly-NAP-TSAO): 0%
Conversion %, 24 h (H-Val-Gly-NAP-TSAO): 0%
Conversion %, 1 h (H-Val-4HyPro-NAP-TSAO): 4.1%
Conversion %, 4 h (H-Val-4HyPro-NAP-TSAO): 18%
Conversion %, 24 h (H-Val-4HyPro-NAP-TSAO): 53%
Conversion %, 1 h (H-Val-Phe-NAP-TSAO): 0%
Conversion %, 4 h (H-Val-Phe-NAP-TSAO): 0%
Conversion %, 24 h (H-Val-Phe-NAP-TSAO): 0%
conversion of PI-2 to PI-1 by purified CD26 (Val-Pro-PI 1): Within 60 min, PI-2 was completely converted to PI-1 by purified CD26
% conversion, 1 h [3]: 12%
% conversion, 4 h [3]: 54%
% conversion, 24 h [3]: 70%
Conversion %, 4 h (H-Gly-3.4Hypro-NAP-TSAO): 0%
Conversion %, 24 h (H-Gly-3.4Hypro-NAP-TSAO): 0%
Conversion %, 1 h (H-Gly-Pro-NAP-TSAO): 5%
Conversion %, 4 h (H-Gly-Pro-NAP-TSAO): 20%
Conversion %, 24 h (H-Gly-Pro-NAP-TSAO): 58%
% conversion, 1 h [4]: 99%
% conversion, 4 h [4]: 100%
% conversion, 24 h [4]: 100%
Conversion %, 1 h (H-Val-Pro-Val-NHP-TSAO): 33%
Conversion %, 4 h (H-Val-Pro-Val-NHP-TSAO): 60%
Conversion %, 4 h (H-Lys-Pro-NAP-TSAO): 85%
Conversion %, 24 h (H-Lys-Pro-NAP-TSAO): 99%
Conversion %, 1 h (H-Val-Leu-NAP-TSAO): 0%
Conversion %, 4 h (H-Val-Leu-NAP-TSAO): 0%
Conversion %, 24 h (H-Val-Leu-NAP-TSAO): 0%
% conversion, 1 h (Fmoc-Val-Pro-Doxorubicin): 0%
% conversion, 4 h (Fmoc-Val-Pro-Doxorubicin): 0%
% conversion, 24 h (Fmoc-Val-Pro-Doxorubicin): 0%
% conversion, 1 h (H-Val-Pro-Doxorubicin): 78%
% conversion, 4 h (H-Val-Pro-Doxorubicin): 95%
% conversion, 24 h (H-Val-Pro-Doxorubicin): 97%
Conversion %, 1 h [5]: 0%
Conversion %, 4 h [5]: 0%
Conversion %, 24 h [5]: 0%
% conversion, 1 h [6]: 43%
% conversion, 4 h [6]: 86%
% conversion, 24 h [6]: 88%
Conversion %, 4 h (H-Val-Pro-Val-NAP-TSAO): 51%
Conversion %, 24 h (H-Val-Pro-Val-NAP-TSAO): 70%
Conversion %, 4 h (H-Asp-Pro-NAP-TSAO): 7.9%
Conversion %, 24 h (H-Asp-Pro-NAP-TSAO): 30%
% conversion, 1 h, to the dipeptide intermediate (a) [7]: 88%
% conversion, 1 h, to the parent compound (b) [7]: 2.1%
% conversion, 4 h, to the dipeptide intermediate (a) [7]: 86%
% conversion, 4 h, to the parent compound (b) [7]: 6%
% conversion, 24 h, to the dipeptide intermediate (a) [7]: 74%
% conversion, 24 h, to the parent compound (b) [7]: 26%
